Experiment [1] deals with DENV-2 antigenic variant NGC-V2 (dengue type 2 virus), P14340. In words: cell-based or functional assay.
Another experiment deals with chimpanzee Fab 1A5. The experiment in a line: competition ELISA: Fab 1A5 (1.04 nM) pre-incubated with peptide in serial dilution, then binding to DENV-2 coated wells. On the technique in general: ELISA stands for enzyme-linked immunosorbent assay.

B1: chimpanzee Fab 1A5 (Fab, V domains shown)
VH: EVQLLESGGGLVQPGGSRRLSCAASGFTISDNVMHWVRQAPGKGLEWVALIYSADTTHYADSVKGRFTISRDNSKNTLYLQMDSLRPEDTAVYYCAREYCTGDTCFAHFDYWGQGTLVSVSS
VL: ELQMTQSPSSVSASVGDTVTIACRASQSITNYLSWYQQKPGKAPKLLIYHASTLQSGIPSRFSGSGSGTDFTLTISSLQPDDFATYYCHYGYGTHTFGQGTKLEIKRT
With B1, the PRNT50 titer in experiment [1] was greater than 70 µg/mL.

The molecule DRGWGNGSGLFGKGG (modifications not checked) [fusion peptide …] displayed an IC50 in the experiment with chimpanzee Fab 1A5 of 170 µM.

As usually defined, the IC50 is the point on the concentration scale where inhibition reaches its midpoint. Read a low IC50 as higher potency.

For the origin of these results see patent publication US20070134256A1.
